Among the data in PMC6337131, “Kinetics and Predicted Structure of a Novel Xylose Reductase from Chaetomium thermophilum” (International Journal of Molecular Sciences, 2019) are Km, kcat and kcat/Km values, retold here.

Substrate in data set [1]: NC(=O)C1=CN([C@@H]2O[C@H](COP(=O)(O)OP(=O)(O)OC[C@H]3O[C@@H](n4cnc5c(N)ncnc54)[C@H](O)[C@@H]3O)[C@@H](O)[C@H]2O)C=CC1
As to the kind of experiment: purified protein. Format: biochemical, Thermochaetoides thermophila. Particulars: 0.5 M D-xylose, 50 mM bis-tris pH 6.5, 30 °C, varied: cofactor.

Substrate in data set [2]: NC(=O)C1=CN([C@@H]2O[C@H](COP(=O)(O)OP(=O)(O)OC[C@H]3O[C@@H](n4cnc5c(N)ncnc54)[C@H](OP(=O)(O)O)[C@@H]3O)[C@@H](O)[C@H]2O)C=CC1
As to the kind of experiment: purified protein. As to conditions: 0.5 M D-xylose, 50 mM bis-tris pH 6.5, 30 °C, varied: cofactor. Format: biochemical, Thermochaetoides thermophila.

B1: CtXR; xylose reductase from Chaetomium thermophilum (Thermochaetoides thermophila DSM 1495) (protein)
chain: MAPQIPNIKLSSGYDMPQVGFGLWKVDRSICADVVYNAIKIGYRLFDGACDYGNEVEAGQGIARAIKEGIVKREELFIVSKLWNTFHDGDKVEPIVRKQLADWGIDYFDLYLVHFPVALEYVDPSVRYPPGWFYDGEKEIRPSKATIQETWTAMESLVEKGLARSIGVSNFQAQLLYDLLRYAKIRPATLQIEHHPFLVQQELLNLAKAEGIAVTAYSSFGPQSFLEFNMKHAVQLTPLFEDETIKKIAAKYNRPASQVLLRWATQRGLAIIPKSTRPEIMKSNLESIEFDLSEEDIATISAFDRGLRFNQPTNYFPTEHLWIFG
notes: full-length ORF, codon optimized, pET28a, C-terminal His6 tag kept, E. coli BL21(DE3), IMAC and SEC; theoretical mass 39,244 Da; oligomer not determined (XRs commonly dimers)
A word on the Km: it is the substrate concentration at which the rate is half of its maximum. In general, kcat refers to the number of substrate molecules converted per active site and unit of time at saturation. What is called kcat/Km is the second-order rate constant that governs catalysis at low substrate concentration. Consider B1, for which, in data set [1], the Michaelis constant (Km) is 119 ± 6 µM, the kcat is 3.2 ± 0.1 s⁻¹ and the kcat/Km came to 26700 ± 1670 M⁻¹ s⁻¹. Moreover, in data set [2], the Km was found to be 135 ± 44 µM, the turnover number (kcat) is 11.4 ± 1.1 s⁻¹ and the specificity constant (kcat/Km) is 85000 ± 28300 M⁻¹ s⁻¹.
